Experimental data published in patent US20150344570A1 (published 2015).

T1: FcγRIIa R (human, UniProt P12318 34-217)
T1 construct: extracellular domain; also called FcgRIIa R type; 2aR
T1 sequence (looked up): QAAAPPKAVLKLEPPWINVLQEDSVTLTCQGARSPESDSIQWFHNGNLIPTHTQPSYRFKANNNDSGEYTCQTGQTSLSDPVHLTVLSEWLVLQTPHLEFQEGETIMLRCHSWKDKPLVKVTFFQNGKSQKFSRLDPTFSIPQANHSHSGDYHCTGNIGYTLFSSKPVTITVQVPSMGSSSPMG

B1: GpH7-B3 variant N325_01G/GpL16-k0 (antibody, human IgG1, kappa)
heavy: not shown
light: DIVMTQSPLSLPVTPGEPASISCQASESLVHSNRNTYLHWYLQKPGQSPQLLIYKVSNRFSGVPDRFSGSGSGTDFTLKISRVEAEDVGVYYCSQNTHVPPTFGQGTKVEIERTVAAPSVFIFPPSDEQLKSGTASVVCLLNNFYPREAKVQWKVDNALQSGNSQESVTEQDSKDSTYSLSSTLTLSKADYEKHKVYACEVTHQGLSSPVTKSFNRGEC
notes: also called Ho Ab N325_01G
B2: GpH7-B3 variant A330_01G/GpL16-k0 (antibody, human IgG1, kappa)
heavy: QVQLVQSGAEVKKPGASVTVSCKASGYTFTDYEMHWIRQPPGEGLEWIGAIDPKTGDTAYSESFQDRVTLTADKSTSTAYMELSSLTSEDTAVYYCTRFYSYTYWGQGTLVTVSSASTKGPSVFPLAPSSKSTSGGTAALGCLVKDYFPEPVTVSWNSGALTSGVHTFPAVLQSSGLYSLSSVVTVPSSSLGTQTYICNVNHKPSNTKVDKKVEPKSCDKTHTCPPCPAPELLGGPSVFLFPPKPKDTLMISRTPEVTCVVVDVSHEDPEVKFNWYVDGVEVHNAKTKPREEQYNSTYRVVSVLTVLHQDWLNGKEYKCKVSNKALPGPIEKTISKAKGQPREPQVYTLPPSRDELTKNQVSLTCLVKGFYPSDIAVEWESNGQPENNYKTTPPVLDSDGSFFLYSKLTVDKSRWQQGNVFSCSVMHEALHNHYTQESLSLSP
light: B1 light
notes: also called Ho Ab A330_01G
B3: GpH7-B3 variant I336_18N/GpL16-k0 (antibody, human IgG1, kappa)
heavy: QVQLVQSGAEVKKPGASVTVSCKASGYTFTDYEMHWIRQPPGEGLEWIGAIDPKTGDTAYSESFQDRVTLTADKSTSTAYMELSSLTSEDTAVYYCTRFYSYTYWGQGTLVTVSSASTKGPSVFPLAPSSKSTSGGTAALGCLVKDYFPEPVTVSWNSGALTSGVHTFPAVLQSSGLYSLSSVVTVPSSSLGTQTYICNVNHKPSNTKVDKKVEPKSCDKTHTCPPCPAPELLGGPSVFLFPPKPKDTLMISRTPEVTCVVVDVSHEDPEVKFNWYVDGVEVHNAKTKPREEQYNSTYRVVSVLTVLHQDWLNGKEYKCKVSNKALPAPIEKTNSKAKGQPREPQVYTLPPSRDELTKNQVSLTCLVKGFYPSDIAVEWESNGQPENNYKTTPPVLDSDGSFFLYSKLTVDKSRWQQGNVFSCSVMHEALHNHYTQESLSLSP
light: B1 light
notes: also called Ho Ab I336_18N
B4: GpH7-B3 variant E333_07I/GpL16-k0 (antibody, human IgG1, kappa)
heavy: not shown
light: B1 light
notes: also called Ho Ab E333_07I
B5: GpH7-B3 variant E333_05P/GpL16-k0 (antibody, human IgG1, kappa)
heavy: not shown
light: B1 light
notes: also called Ho Ab E333_05P
B6: GpH7-B3 variant A330_05P/GpL16-k0 (antibody, human IgG1, kappa)
heavy: not shown
light: B1 light
notes: also called Ho Ab A330_05P
B7: GpH7-B3 variant A327_09D/GpL16-k0 (antibody, human IgG1, kappa)
heavy: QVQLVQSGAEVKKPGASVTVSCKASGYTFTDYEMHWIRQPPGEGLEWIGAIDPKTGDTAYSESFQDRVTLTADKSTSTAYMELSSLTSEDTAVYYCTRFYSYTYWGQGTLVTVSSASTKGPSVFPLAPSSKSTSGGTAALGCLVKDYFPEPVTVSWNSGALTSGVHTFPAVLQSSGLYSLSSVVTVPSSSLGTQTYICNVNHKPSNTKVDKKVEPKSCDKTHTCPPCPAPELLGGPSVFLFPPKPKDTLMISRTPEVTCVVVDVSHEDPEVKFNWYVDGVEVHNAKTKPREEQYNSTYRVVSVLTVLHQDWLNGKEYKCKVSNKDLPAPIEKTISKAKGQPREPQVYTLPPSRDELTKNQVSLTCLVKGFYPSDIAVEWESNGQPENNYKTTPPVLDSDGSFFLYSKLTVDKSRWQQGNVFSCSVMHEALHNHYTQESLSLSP
light: B1 light
notes: also called Ho Ab A327_09D
B8: GpH7-B3 variant I332_14T/GpL16-k0 (antibody, human IgG1, kappa)
heavy: not shown
light: B1 light
notes: also called Ho Ab I332_14T
B9: GpH7-B3 variant K326_04F/GpL16-k0 (antibody, human IgG1, kappa)
heavy: not shown
light: B1 light
notes: also called Ho Ab K326_04F
B10: GpH7-B3 variant G237_19Q/GpL16-k0 (antibody, human IgG1, kappa)
heavy: not shown
light: B1 light
notes: also called Ho Ab G237_19Q
B11: GpH7-B3 variant H268_03V/GpL16-k0 (antibody, human IgG1, kappa)
heavy: not shown
light: B1 light
notes: also called Ho Ab H268_03V
B12: GpH7-B3 variant G237_13S/GpL16-k0 (antibody, human IgG1, kappa)
heavy: not shown
light: B1 light
notes: also called Ho Ab G237_13S
B13: GpH7-B3 variant H268_12R/GpL16-k0 (antibody, human IgG1, kappa)
heavy: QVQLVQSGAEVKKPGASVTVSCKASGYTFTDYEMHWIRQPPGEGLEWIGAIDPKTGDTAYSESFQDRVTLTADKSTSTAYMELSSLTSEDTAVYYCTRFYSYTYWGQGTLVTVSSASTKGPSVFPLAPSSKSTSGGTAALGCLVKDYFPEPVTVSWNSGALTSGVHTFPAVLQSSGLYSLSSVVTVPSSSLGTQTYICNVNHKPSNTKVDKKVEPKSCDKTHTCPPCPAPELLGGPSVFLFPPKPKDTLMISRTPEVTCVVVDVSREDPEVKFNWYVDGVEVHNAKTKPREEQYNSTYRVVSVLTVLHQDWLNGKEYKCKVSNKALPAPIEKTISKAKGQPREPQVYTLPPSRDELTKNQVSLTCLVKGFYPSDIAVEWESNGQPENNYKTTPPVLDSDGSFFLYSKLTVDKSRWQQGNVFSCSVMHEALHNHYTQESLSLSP
light: B1 light
notes: also called Ho Ab H268_12R
B14: GpH7-B3 variant G237_06M/GpL16-k0 (antibody, human IgG1, kappa)
heavy: not shown
light: B1 light
notes: also called Ho Ab G237_06M
B15: GpH7-B3 variant G237_20W/GpL16-k0 (antibody, human IgG1, kappa)
heavy: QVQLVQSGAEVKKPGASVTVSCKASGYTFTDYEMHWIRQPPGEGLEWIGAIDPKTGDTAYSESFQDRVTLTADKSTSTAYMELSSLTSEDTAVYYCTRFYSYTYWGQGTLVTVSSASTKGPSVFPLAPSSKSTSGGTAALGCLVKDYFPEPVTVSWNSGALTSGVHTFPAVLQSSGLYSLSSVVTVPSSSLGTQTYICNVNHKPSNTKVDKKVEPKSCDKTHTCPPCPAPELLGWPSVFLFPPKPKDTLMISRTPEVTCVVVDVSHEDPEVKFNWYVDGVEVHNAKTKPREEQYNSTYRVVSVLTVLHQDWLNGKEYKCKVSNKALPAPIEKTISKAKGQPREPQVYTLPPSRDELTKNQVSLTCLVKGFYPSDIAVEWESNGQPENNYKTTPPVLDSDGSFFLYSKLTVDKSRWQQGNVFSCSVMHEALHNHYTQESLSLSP
light: B1 light
notes: also called Ho Ab G237_20W
B16: GpH7-B3 variant H268_15Y/GpL16-k0 (antibody, human IgG1, kappa)
heavy: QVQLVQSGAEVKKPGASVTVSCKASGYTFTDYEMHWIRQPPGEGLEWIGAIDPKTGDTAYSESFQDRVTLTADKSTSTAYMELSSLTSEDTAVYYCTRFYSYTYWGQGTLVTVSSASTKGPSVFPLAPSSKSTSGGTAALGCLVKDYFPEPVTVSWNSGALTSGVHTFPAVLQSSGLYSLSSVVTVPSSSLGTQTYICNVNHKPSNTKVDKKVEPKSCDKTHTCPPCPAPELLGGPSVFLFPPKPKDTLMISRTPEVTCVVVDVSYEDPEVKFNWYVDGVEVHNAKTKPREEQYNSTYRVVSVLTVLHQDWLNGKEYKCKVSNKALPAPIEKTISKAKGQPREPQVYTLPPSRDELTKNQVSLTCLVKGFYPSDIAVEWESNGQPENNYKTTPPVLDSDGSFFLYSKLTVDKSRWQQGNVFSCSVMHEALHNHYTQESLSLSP
light: B1 light
notes: also called Ho Ab H268_15Y
B17: GpH7-B3 variant I336_06M/GpL16-k0 (antibody, human IgG1, kappa)
heavy: not shown
light: B1 light
notes: also called Ho Ab I336_06M
B18: GpH7-B3 variant G237_02A/GpL16-k0 (antibody, human IgG1, kappa)
heavy: not shown
light: B1 light
notes: also called Ho Ab G237_02A
B19: GpH7-B3 variant H268_20W/GpL16-k0 (antibody, human IgG1, kappa)
heavy: not shown
light: B1 light
notes: also called Ho Ab H268_20W
B20: GpH7-B3 variant G237_04F/GpL16-k0 (antibody, human IgG1, kappa)
heavy: not shown
light: B1 light
notes: also called Ho Ab G237_04F
B21: GpH7-B3 variant A330_11K/GpL16-k0 (antibody, human IgG1, kappa)
heavy: not shown
light: B1 light
notes: also called Ho Ab A330_11K
B22: GpH7-B3 variant K326_07I/GpL16-k0 (antibody, human IgG1, kappa)
heavy: not shown
light: B1 light
notes: also called Ho Ab K326_07I
B23: GpH7-B3 variant E333_15Y/GpL16-k0 (antibody, human IgG1, kappa)
heavy: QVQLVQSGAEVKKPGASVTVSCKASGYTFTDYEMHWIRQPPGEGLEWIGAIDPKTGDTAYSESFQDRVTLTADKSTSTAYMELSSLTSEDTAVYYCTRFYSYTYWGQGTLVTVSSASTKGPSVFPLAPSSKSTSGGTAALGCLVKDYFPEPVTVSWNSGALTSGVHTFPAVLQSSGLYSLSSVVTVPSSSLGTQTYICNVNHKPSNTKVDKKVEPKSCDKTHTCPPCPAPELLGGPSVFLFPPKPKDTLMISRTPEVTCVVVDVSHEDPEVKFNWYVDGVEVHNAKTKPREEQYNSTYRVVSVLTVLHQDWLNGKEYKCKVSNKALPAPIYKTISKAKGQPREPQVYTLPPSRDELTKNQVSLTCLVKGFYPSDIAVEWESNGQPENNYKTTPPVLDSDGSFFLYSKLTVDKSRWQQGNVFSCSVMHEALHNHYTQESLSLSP
light: B1 light
notes: also called Ho Ab E333_15Y
B24: GpH7-B3 variant A330_19Q/GpL16-k0 (antibody, human IgG1, kappa)
heavy: not shown
light: B1 light
notes: also called Ho Ab A330_19Q
B25: GpH7-B3 variant K326_08L/GpL16-k0 (antibody, human IgG1, kappa)
heavy: not shown
light: B1 light
notes: also called Ho Ab K326_08L
B26: GpH7-B3 variant H268_05P/GpL16-k0 (antibody, human IgG1, kappa)
heavy: not shown
light: B1 light
notes: also called Ho Ab H268_05P
B27: GpH7-B3 variant E269_09D/GpL16-k0 (antibody, human IgG1, kappa)
heavy: not shown
light: B1 light
notes: also called Ho Ab E269_09D
B28: GpH7-B3 variant A330_15Y/GpL16-k0 (antibody, human IgG1, kappa)
heavy: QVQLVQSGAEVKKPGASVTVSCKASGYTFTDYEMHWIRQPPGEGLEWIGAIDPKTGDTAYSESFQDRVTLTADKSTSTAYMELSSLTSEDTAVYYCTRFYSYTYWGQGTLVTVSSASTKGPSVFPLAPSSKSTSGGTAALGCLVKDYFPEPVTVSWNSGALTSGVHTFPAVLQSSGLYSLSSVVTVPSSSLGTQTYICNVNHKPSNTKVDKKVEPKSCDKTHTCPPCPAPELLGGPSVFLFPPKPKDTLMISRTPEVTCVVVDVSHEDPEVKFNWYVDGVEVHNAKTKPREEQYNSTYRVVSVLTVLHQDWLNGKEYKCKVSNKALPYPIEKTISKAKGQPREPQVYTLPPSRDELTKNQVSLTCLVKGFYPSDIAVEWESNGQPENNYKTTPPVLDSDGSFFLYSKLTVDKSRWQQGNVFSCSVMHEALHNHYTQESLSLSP
light: B1 light
notes: also called Ho Ab A330_15Y
B29: GpH7-B3 variant E333_09D/GpL16-k0 (antibody, human IgG1, kappa)
heavy: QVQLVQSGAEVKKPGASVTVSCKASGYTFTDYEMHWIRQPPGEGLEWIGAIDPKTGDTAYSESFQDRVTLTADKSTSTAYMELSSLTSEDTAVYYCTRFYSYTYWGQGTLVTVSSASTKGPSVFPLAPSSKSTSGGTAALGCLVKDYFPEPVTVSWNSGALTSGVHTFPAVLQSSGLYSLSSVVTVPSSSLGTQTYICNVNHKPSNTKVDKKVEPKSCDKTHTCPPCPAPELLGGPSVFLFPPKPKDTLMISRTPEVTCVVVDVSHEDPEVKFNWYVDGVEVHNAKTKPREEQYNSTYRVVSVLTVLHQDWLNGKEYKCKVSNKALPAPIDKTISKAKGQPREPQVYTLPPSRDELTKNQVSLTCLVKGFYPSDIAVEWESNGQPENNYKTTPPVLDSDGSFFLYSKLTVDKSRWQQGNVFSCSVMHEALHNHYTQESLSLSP
light: B1 light
notes: also called Ho Ab E333_09D
B30: GpH7-B3 variant G237_08L/GpL16-k0 (antibody, human IgG1, kappa)
heavy: not shown
light: B1 light
notes: also called Ho Ab G237_08L
B31: GpH7-B3 variant H268_11K/GpL16-k0 (antibody, human IgG1, kappa)
heavy: not shown
light: B1 light
notes: also called Ho Ab H268_11K
B32: GpH7-B3 variant E333_04F/GpL16-k0 (antibody, human IgG1, kappa)
heavy: not shown
light: B1 light
notes: also called Ho Ab E333_04F
B33: GpH7-B3 variant K326_03V/GpL16-k0 (antibody, human IgG1, kappa)
heavy: not shown
light: B1 light
notes: also called Ho Ab K326_03V
B34: GpH7-B3 variant H268_01G/GpL16-k0 (antibody, human IgG1, kappa)
heavy: not shown
light: B1 light
notes: also called Ho Ab H268_01G
B35: GpH7-B3 variant G237_18N/GpL16-k0 (antibody, human IgG1, kappa)
heavy: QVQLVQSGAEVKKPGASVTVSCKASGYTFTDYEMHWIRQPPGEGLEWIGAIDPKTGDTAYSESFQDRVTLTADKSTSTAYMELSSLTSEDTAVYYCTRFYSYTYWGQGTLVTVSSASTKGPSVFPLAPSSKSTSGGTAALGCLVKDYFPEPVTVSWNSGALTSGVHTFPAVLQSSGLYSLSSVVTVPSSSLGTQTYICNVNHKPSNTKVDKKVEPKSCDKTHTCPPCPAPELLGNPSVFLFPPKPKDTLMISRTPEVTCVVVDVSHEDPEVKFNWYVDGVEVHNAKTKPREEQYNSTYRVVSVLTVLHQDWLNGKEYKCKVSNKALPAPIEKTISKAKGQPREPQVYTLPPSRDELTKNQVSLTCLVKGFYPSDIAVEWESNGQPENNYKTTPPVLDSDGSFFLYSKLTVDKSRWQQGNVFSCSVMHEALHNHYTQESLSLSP
light: B1 light
notes: also called Ho Ab G237_18N
B36: GpH7-B3 variant G237_09D/GpL16-k0 (antibody, human IgG1, kappa)
heavy: not shown
light: B1 light
notes: also called Ho Ab G237_09D
B37: GpH7-B3 variant G237_10E/GpL16-k0 (antibody, human IgG1, kappa)
heavy: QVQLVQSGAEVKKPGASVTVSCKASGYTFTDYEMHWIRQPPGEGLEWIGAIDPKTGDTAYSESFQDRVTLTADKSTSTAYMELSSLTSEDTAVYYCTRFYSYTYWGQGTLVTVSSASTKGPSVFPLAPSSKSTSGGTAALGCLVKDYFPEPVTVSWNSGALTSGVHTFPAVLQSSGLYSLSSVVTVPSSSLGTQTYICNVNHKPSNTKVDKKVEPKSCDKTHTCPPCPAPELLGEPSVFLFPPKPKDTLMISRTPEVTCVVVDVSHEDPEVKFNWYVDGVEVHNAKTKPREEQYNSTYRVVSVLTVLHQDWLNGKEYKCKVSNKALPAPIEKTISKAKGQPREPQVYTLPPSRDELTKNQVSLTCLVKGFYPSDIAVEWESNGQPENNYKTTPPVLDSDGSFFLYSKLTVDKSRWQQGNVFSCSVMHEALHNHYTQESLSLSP
light: B1 light
notes: also called Ho Ab G237_10E
B38: GpH7-B3 variant A330_12R/GpL16-k0 (antibody, human IgG1, kappa)
heavy: not shown
light: B1 light
notes: also called Ho Ab A330_12R
B39: GpH7-B3 variant E333_08L/GpL16-k0 (antibody, human IgG1, kappa)
heavy: not shown
light: B1 light
notes: also called Ho Ab E333_08L
B40: GpH7-B3 variant I336_08L/GpL16-k0 (antibody, human IgG1, kappa)
heavy: not shown
light: B1 light
notes: also called Ho Ab I336_08L
B41: GpH7-B3 variant A327_10E/GpL16-k0 (antibody, human IgG1, kappa)
heavy: not shown
light: B1 light
notes: also called Ho Ab A327_10E
B42: GpH7-B3 variant K326_12R/GpL16-k0 (antibody, human IgG1, kappa)
heavy: not shown
light: B1 light
notes: also called Ho Ab K326_12R
B43: GpH7-B3 variant I332_06M/GpL16-k0 (antibody, human IgG1, kappa)
heavy: not shown
light: B1 light
notes: also called Ho Ab I332_06M
B44: GpH7-B3 variant G236_14T/GpL16-k0 (antibody, human IgG1, kappa)
heavy: not shown
light: B1 light
notes: also called Ho Ab G236_14T

target: T1, FcγRIIa R; assay: SPR (Biacore), captured antibody, FcγR as analyte; relative binding activity
Procedure: Analysis of interaction between objective antibody and the FcγR was carried out using Biacore T100 (GE Healthcare). HBS-EP+ (GE Healthcare) was used as the running buffer, and the measurement temperature was set to 25° C. Chips produced by immobilizing the antigen peptide by the amine coupling method to a Series S Sencor Chip CM5 (GE Healthcare), or alternatively, chips produced by allowing preliminarily biotinylated antigen peptides to interact with and immobilize onto a Series S Sensor Chip SA (certified) (GE Healthcare) were used. Antibodies of interest were captured onto an antigen peptide-immobilized chip, and allowed to interact to each FcγR diluted with running buffer. To regenerate and repeatedly use the chip, the antibodies captured on the chip were washed off by reacting 10 mM glycine-HCl, pH 1.5.

Row | Ho/Con_2aR | Binder
1 | 26.7 % (GpH7-B3/GpL16-k0 = 100) | B1
2 | 106 % (GpH7-B3/GpL16-k0 = 100) | B2
3 | 94.5 % (GpH7-B3/GpL16-k0 = 100) | B3
4 | 98.3 % (GpH7-B3/GpL16-k0 = 100) | B4
5 | 99.9 % (GpH7-B3/GpL16-k0 = 100) | B5
6 | 36.2 % (GpH7-B3/GpL16-k0 = 100) | B6
7 | 120 % (GpH7-B3/GpL16-k0 = 100) | B7
8 | 99.6 % (GpH7-B3/GpL16-k0 = 100) | B8
9 | 133 % (GpH7-B3/GpL16-k0 = 100) | B9
10 | 14.3 % (GpH7-B3/GpL16-k0 = 100) | B10
11 | 105 % (GpH7-B3/GpL16-k0 = 100) | B11
12 | 44.4 % (GpH7-B3/GpL16-k0 = 100) | B12
13 | 98.5 % (GpH7-B3/GpL16-k0 = 100) | B13
14 | 55.3 % (GpH7-B3/GpL16-k0 = 100) | B14
15 | 107 % (GpH7-B3/GpL16-k0 = 100) | B15
16 | 106 % (GpH7-B3/GpL16-k0 = 100) | B16
17 | 96.4 % (GpH7-B3/GpL16-k0 = 100) | B17
18 | 84 % (GpH7-B3/GpL16-k0 = 100) | B18
19 | 110 % (GpH7-B3/GpL16-k0 = 100) | B19
20 | 113 % (GpH7-B3/GpL16-k0 = 100) | B20
21 | 106 % (GpH7-B3/GpL16-k0 = 100) | B21
22 | 133 % (GpH7-B3/GpL16-k0 = 100) | B22

Row | Ho/Con_2aR | Binder
23 | 96.2 % (GpH7-B3/GpL16-k0 = 100) | B23
24 | 99.1 % (GpH7-B3/GpL16-k0 = 100) | B24
25 | 131 % (GpH7-B3/GpL16-k0 = 100) | B25
26 | 95.9 % (GpH7-B3/GpL16-k0 = 100) | B26
27 | 103 % (GpH7-B3/GpL16-k0 = 100) | B27
28 | 87.5 % (GpH7-B3/GpL16-k0 = 100) | B28
29 | 96.5 % (GpH7-B3/GpL16-k0 = 100) | B29
30 | 56.6 % (GpH7-B3/GpL16-k0 = 100) | B30
31 | 93.4 % (GpH7-B3/GpL16-k0 = 100) | B31
32 | 92.4 % (GpH7-B3/GpL16-k0 = 100) | B32
33 | 139 % (GpH7-B3/GpL16-k0 = 100) | B33
34 | 122 % (GpH7-B3/GpL16-k0 = 100) | B34
35 | 73.6 % (GpH7-B3/GpL16-k0 = 100) | B35
36 | 73.1 % (GpH7-B3/GpL16-k0 = 100) | B36
37 | 22.5 % (GpH7-B3/GpL16-k0 = 100) | B37
38 | 101 % (GpH7-B3/GpL16-k0 = 100) | B38
39 | 97.1 % (GpH7-B3/GpL16-k0 = 100) | B39
40 | 105 % (GpH7-B3/GpL16-k0 = 100) | B40
41 | 104 % (GpH7-B3/GpL16-k0 = 100) | B41
42 | 95.7 % (GpH7-B3/GpL16-k0 = 100) | B42
43 | 105 % (GpH7-B3/GpL16-k0 = 100) | B43
44 | 80 % (GpH7-B3/GpL16-k0 = 100) | B44
